Data as given in IntAct's records for PubMed 31515488.

B1: Protein unc-45 homolog A (Homo sapiens), Q9H3U1 (parent)
chain: MTVSGPGTPEPRPATPGASSVEQLRKEGNELFKCGDYGGALAAYTQALGLDATPQDQAVLHRNRAACHLKLEDYDKAETEASKAIEKDGGDVKALYRRSQALEKLGRLDQAVLDLQRCVSLEPKNKVFQEALRNIGGQIQEKVRYMSSTDAKVEQMFQILLDPEEKGTEKKQKASQNLVVLAREDAGAEKIFRSNGVQLLQRLLDMGETDLMLAALRTLVGICSEHQSRTVATLSILGTRRVVSILGVESQAVSLAACHLLQVMFDALKEGVKKGFRGKEGAIIVDPARELKVLISNLLDLLTEVGVSGQGRDNALTLLIKAVPRKSLKDPNNSLTLWVIDQGLKKILEVGGSLQDPPGELAVTANSRMSASILLSKLFDDLKCDAERENFHRLCENYIKSWFEGQGLAGKLRAIQTVSCLLQGPCDAGNRALELSGVMESVIALCASEQEEEQLVAVEALIHAAGKAKRASFITANGVSLLKDLYKCSEKDSIRIRALVGLCKLGSAGGTDFSMKQFAEGSTLKLAKQCRKWLCNDQIDAGTRRWAVEGLAYLTFDADVKEEFVEDAAALKALFQLSRLEERSVLFAVASALVNCTNSYDYEEPDPKMVELAKYAKQHVPEQHPKDKPSFVRARVKKLLAAGVVSAMVCMVKTESPVLTSSCRELLSRVFLALVEEVEDRGTVVAQGGGRALIPLALEGTDVGQTKAAQALAKLTITSNPEMTFPGERIYEVVRPLVSLLHLNCSGLQNFEALMALTNLAGISERLRQKILKEKAVPMIEGYMFEEHEMIRRAATECMCNLAMSKEVQDLFEAQGNDRLKLLVLYSGEDDELLQRAAAGGLAMLTSMRPTLCSRIPQVTTHWLEILQALLLSSNQELQHRGAVVVLNMVEASREIASTLMESEMMEILSVLAKGDHSPVTRAAAACLDKAVEYGLIQPNQDGE
B2: BICD family-like cargo adapter 2 (Homo sapiens), A1A5D9 (parent)
chain: MSSPDGPSFPSGPLSGGASPSGDEGFFPFVLERRDSFLGGGPGPEEPEDLALQLQQKEKDLLLAAELGKMLLERNEELRRQLETLSAQHLEREERLQQENHELRRGLAARGAEWEARAVELEGDVEALRAQLGEQRSEQQDSGRERARALSELSEQNLRLSQQLAQASQTEQELQRELDALRGQCQAQALAGAELRTRLESLQGENQMLQSRRQDLEAQIRGLREEVEKGEGRLQTTHEELLLLRRERREHSLELERARSEAGEALSALRRLQRRVSELEEESRLQDADVSAASLQSELAHSLDDGDQGQGADAPGDTPTTRSPKTRKASSPQPSPPEEILEPPKKRTSLSPAEILEEKEVEVAKLQDEISLQQAELQSLREELQRQKELRAQEDPGEALHSALSDRDEAVNKALELSLQLNRVSLERDSLSRELLRAIRQKVALTQELEAWQDDMQVVIGQQLRSQRQKELSASASSSTPRRAAPRFSLRLGPGPAGGFLSNLFRRT
B3: Pleckstrin homology domain-containing family N member 1 (Homo sapiens), Q494U1 (parent)
chain: MGNSHCVPQAPRRLRASFSRKPSLKGNREDSARMSAGLPGPEAARSGDAAANKLFHYIPGTDILDLENQRENLEQPFLSVFKKGRRRVPVRNLGKVVHYAKVQLRFQHSQDVSDCYLELFPAHLYFQAHGSEGLTFQGLLPLTELSVCPLEGSREHAFQITGPLPAPLLVLCPSRAELDRWLYHLEKQTALLGGPRRCHSAPPQRRLTRLRTASGHEPGGSAVCASRVKLQHLPAQEQWDRLLVLYPTSLAIFSEELDGLCFKGELPLRAVHINLEEKEKQIRSFLIEGPLINTIRVVCASYEDYGHWLLCLRAVTHREGAPPLPGAESFPGSQVMGSGRGSLSSGGQTSWDSGCLAPPSTRTSHSLPESSVPSTVGCSSQHTPDQANSDRASIGRRRTELRRSGSSRSPGSKARAEGRGPVTPLHLDLTQLHRLSLESSPDAPDHTSETSHSPLYADPYTPPATSHRRVTDVRGLEEFLSAMQSARGPTPSSPLPSVPVSVPASDPRSCSSGPAGPYLLSKKGALQSRAAQRHRGSAKDGGPQPPDAPQLVSSAREGSPEPWLPLTDGRSPRRSRDPGYDHLWDETLSSSHQKCPQLGGPEASGGLVQWI
B4: Isoform 1 of Cyclin-dependent kinase 4 (Homo sapiens), P11802-1 (parent)
chain: MATSRYEPVAEIGVGAYGTVYKARDPHSGHFVALKSVRVPNGGGGGGGLPISTVREVALLRRLEAFEHPNVVRLMDVCATSRTDREIKVTLVFEHVDQDLRTYLDKAPPPGLPAETIKDLMRQFLRGLDFLHANCIVHRDLKPENILVTSGGTVKLADFGLARIYSYQMALTPVVVTLWYRAPEVLLQSTYATPVDMWSVGCIFAEMFRRKPLFCGNSEADQLGKIFDLIGLPPEDDWPRDVSLPRGAFPPRGPRPVQSVVPEMEESGAQLLLEMLTFNPHKRISAFRALQHSYLHKDEGNPE

Variants of: B1
Conditions: with trim1_human MID2, Q9UJV3
Sequence of trim1_human MID2, Q9UJV3 (Q9UJV3 whole entry): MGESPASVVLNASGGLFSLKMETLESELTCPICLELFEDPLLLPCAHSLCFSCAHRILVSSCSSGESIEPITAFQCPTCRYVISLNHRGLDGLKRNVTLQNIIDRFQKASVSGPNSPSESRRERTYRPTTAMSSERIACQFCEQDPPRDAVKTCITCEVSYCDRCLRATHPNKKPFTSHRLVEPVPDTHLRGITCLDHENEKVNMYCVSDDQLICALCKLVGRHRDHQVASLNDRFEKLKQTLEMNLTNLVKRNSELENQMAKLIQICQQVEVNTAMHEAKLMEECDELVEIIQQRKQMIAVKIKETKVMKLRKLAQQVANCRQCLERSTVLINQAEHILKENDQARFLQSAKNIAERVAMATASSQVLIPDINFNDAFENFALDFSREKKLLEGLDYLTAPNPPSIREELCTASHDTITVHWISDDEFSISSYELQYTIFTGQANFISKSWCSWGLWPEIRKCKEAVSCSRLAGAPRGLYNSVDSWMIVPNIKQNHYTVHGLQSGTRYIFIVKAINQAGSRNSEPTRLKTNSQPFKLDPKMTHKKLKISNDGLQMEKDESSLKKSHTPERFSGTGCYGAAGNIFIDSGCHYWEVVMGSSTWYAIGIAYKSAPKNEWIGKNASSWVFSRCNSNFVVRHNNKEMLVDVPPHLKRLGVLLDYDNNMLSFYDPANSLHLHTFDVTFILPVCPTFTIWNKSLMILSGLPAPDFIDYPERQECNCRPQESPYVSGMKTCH

| Variant | effect of a mutation on the interaction |
| --- | --- |
| T796M | with no effect |

Variants of: B2
Conditions: with klc3_human KLC3, Q6P597
Sequence of klc3_human KLC3, Q6P597 (Q6P597 whole entry): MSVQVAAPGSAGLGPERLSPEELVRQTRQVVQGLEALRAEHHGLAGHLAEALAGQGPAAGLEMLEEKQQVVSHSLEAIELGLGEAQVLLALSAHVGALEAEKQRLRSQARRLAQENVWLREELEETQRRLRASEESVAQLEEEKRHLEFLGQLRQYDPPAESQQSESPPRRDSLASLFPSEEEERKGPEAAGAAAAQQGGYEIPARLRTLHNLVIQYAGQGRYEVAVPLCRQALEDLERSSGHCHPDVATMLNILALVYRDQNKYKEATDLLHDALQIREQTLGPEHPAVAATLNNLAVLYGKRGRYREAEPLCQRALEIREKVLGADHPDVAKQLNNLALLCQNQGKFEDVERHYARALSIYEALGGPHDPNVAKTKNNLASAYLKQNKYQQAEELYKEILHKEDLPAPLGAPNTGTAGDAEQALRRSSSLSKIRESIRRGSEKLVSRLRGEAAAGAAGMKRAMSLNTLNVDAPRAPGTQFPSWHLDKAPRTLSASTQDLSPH

| Variant | effect of a mutation on the interaction |
| --- | --- |
| E58K | with no effect |

Variants of: B3
Conditions: with itf2_human TCF4, P15884
Sequence of itf2_human TCF4, P15884 (P15884 whole entry): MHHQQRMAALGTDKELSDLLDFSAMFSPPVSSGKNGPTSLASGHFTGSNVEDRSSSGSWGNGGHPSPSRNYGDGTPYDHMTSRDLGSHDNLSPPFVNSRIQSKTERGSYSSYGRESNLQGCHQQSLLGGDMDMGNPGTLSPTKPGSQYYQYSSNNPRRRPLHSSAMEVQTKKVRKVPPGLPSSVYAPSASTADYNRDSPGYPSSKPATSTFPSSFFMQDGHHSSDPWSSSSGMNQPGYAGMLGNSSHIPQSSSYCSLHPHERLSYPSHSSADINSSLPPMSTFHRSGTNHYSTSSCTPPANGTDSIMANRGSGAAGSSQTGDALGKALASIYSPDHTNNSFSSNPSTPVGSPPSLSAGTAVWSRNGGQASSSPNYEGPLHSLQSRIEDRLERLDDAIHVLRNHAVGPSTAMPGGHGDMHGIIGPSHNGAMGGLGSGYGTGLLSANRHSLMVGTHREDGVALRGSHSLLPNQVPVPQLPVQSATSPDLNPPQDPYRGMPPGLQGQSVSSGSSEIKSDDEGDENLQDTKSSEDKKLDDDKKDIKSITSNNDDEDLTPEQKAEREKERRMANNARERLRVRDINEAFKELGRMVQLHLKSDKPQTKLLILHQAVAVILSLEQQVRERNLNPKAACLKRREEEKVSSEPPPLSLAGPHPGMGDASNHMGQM

| Variant | effect of a mutation on the interaction |
| --- | --- |
| R487P | with no effect |

Variants of: B3
Conditions: with traf1_human TRAF1, Q13077
Sequence of traf1_human TRAF1, Q13077 (Q13077 whole entry): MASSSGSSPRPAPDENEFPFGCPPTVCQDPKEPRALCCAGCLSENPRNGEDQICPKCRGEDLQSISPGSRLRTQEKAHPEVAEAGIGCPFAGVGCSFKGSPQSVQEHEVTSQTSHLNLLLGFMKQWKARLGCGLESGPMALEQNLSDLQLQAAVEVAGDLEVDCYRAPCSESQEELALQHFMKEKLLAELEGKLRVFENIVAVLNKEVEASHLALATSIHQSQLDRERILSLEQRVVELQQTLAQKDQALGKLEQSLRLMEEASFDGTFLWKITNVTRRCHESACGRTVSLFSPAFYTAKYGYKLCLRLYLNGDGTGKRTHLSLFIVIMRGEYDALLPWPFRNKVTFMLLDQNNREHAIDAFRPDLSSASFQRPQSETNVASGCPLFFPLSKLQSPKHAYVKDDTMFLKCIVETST

| Variant | effect of a mutation on the interaction |
| --- | --- |
| R487P | with no effect |

Variants of: B3
Conditions: with taxb1_human TAX1BP1, Q86VP1
Sequence of taxb1_human TAX1BP1, Q86VP1 (Q86VP1 whole entry): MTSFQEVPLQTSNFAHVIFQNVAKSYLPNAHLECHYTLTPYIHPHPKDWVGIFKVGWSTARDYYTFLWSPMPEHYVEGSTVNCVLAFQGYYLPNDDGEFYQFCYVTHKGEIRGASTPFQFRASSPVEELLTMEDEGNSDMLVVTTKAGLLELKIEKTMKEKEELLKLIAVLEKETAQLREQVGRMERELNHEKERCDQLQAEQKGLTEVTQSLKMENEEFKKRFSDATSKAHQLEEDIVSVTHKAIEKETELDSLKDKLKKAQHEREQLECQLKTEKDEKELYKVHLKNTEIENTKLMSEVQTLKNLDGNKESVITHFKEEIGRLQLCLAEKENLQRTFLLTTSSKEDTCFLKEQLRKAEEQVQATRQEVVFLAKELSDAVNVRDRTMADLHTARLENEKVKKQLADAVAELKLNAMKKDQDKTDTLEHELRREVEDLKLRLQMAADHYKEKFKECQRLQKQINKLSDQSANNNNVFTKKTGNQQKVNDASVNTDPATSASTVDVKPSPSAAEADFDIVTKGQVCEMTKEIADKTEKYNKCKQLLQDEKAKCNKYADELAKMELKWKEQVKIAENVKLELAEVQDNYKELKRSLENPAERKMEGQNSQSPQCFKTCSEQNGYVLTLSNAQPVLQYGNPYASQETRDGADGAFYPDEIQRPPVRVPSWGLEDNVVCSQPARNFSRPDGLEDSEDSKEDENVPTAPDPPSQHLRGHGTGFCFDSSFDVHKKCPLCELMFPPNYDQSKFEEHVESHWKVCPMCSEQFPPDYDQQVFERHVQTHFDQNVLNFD

| Variant | effect of a mutation on the interaction |
| --- | --- |
| R487P | with no effect |

Variants of: B4
Conditions: with ccnd1_human CCND1, P24385
Sequence of ccnd1_human CCND1, P24385 (P24385 whole entry): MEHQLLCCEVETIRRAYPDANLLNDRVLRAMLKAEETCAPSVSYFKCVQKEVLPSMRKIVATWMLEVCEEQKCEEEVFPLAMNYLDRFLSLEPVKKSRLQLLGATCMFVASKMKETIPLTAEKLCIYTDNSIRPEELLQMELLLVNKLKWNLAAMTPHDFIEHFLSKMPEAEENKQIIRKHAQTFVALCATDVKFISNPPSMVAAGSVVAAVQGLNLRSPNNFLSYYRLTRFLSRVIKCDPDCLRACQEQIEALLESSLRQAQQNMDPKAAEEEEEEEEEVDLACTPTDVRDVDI

| Variant | effect of a mutation on the interaction |
| --- | --- |
| G43E | with no effect |
| V174G | with no effect |

Variants of: B4
Conditions: with ccnd2_human CCND2, P30279
Sequence of ccnd2_human CCND2, P30279 (P30279 whole entry): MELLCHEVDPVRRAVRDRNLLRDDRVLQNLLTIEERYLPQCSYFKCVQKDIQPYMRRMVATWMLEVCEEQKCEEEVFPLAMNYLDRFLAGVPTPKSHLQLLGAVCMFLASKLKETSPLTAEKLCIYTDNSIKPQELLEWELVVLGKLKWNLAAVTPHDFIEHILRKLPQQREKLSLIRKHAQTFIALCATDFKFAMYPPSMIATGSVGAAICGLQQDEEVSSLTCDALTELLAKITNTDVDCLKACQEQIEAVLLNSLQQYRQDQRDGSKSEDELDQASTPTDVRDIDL

| Variant | effect of a mutation on the interaction |
| --- | --- |
| G43E | with no effect |
| V174G | disrupting interaction strength |

Variants of: B4
Conditions: with cdn2c_human CDKN2C

| Variant | effect of a mutation on the interaction |
| --- | --- |
| G43E | with no effect |
| V174G | with no effect |

Variants of: B4
Conditions: with ccnd3_human CCND3, P30281
Sequence of ccnd3_human CCND3, P30281 (P30281 whole entry): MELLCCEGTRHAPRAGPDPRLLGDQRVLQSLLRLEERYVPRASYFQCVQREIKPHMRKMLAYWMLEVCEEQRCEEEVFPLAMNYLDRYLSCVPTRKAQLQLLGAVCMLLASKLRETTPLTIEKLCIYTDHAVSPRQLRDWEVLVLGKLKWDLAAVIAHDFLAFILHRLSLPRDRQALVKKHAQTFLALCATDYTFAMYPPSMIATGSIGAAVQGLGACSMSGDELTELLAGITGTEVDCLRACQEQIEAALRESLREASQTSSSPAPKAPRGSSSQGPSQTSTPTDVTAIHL

| Variant | effect of a mutation on the interaction |
| --- | --- |
| G43E | with no effect |
| V174G | with no effect |
